Measured values: publication PMC11948038, “Evolutionary Pro‐To‐Thr Mutation in the Intrinsically Disordered Domain of ANP32 Family Members Modulates Their Target Binding Modes” (Advanced Science, 2025)

B1: ANP32B: acidic leucine‐rich nuclear phosphoprotein 32 B, histone chaperone, paralog of ANP32A (protein, UniProt Q92688 1-251, looked up)
Acidic leucine-rich nuclear …: MDMKRRIHLELRNRTPAAVRELVLDNCKSNDGKIEGLTAEFVNLEFLSLINVGLISVSNLPKLPKLKKLELSENRIFGGLDMLAEKLPNLTHLNLSGNKLKDISTLEPLKKLECLKSLDLFNCEVTNLNDYRESVFKLLPQLTYLDGYDREDQEAPDSDAEVDGVDEEEEDEEGEDEEDEDDEDGEEEEFDEEDDEDEDVEGDEDDDEVSEEEEEFGLDEEDEDEDEDEEEEEGGKGEKRKRETDDEGEDD
B2: ANP32A1‐167: ANP32A construct lacking its LCAR (protein)
chain: MEMGRRIHLELRNRTPSDVKELVLDNSRSNEGKLEGLTDEFEELEFLSTINVGLTSIANLPKLNKLKKLELSDNRVSGGLEVLAEKCPNLTHLNLSGNKIKDLSTIEPLKKLENLKSLDLFNCEVTNLNDYRENVFKLLPQLTYLDGYDRDDKEAPDSDAEGYVEGL

Key:
histone H3 = assay: Coimmunoprecipitation of c-myc-ANP32A/B with histone H3; type: binding; settings: anti-c-myc, Western blot; representative of three experiments
Description: HEK293T cells were transfected with a plasmid encoding ANP32A/b-c-myc. 24 h after transfection, cells were collected for lysates preparation in buffer containing 20 mM Tris-HCl pH 7.5, 100 mM NaCl, 0.5% NP40, 0.1 mM PMSF and cOmplete™. Cells were lysed by sonication and precleared by incubation with sepharose-A beads (GE Healthcare, GE17-5280-01) for 1 h at 4 °C. The lysates were then incubated with anti-c-myc (see Pull-down assays) over night at 4 °C and subsequently with sepharose-A beads (GE Healthcare, GE17-5280-01) for 1 h at room temperature with rotation. Following 6 washes with PBS, the samples were resuspended in SDS loading buffer and analyzed by western blotting.

cytochrome c [1] = biological target: T1, cytochrome c (Homo sapiens, UniProt P99999); settings: Cc-ANP32B, low ionic strength; ref [31]; cited from earlier work
T1 construct: obtained by immunizing male rabbits with full-length recombinant Cc; made in house; host or cells: E. coli BL21 (DE3)
Excerpt: Although both ANP32A and ANP32B interact with Cc via their C‐terminal region, there are remarkable differences in the thermodynamic parameters and binding surfaces between full‐length ANP32A and ANP32B in complex with Cc (Figure 3C,F).^[ [31] ^] […] These di ...

15N-labeled Cc = assay: NMR titration (1H-15N HSQC) of 15N Cc with ANP32A or ANP32A1-167; type: binding; settings: low ionic strength; 25 °C
Description: NMR titrations of 30 µM ^15N reduced Cc with ^14N ANP32A constructs were followed by 1D ^1H and 2D ^1H-^15N heteronuclear single quantum correlation (HSQC) spectra on a Bruker Avance-III 600 MHz equipped with a cryoprobe at 25 °C. ^15N-labelled reduced Cc (in 10 mM sodium phosphate buffer, pH 7.4) was titrated with increasing amounts of ^14N ANP32A dialyzed against the same buffer. Reduced ^15N Cc and ^14N ANP32A1-167 construct were titrated in 5 mM sodium phosphate buffer pH 6.4. To maintain the redox state of Cc and to adjust the lock signal on the NMR spectrometer, 0.1 mM of sodium ascorbate and 10% of D2O were added, respectively. Data were acquired and processed using TopSpin NMR 3.5pl7 software (Bruker).
Line broadening and chemical-shift perturbation analysis were performed using the Sparky 3 NMR assignment tool (T.D. Goddard and D.G. Kneller, University of California San Francisco, USA). Assignment of ANP32A230-249 and ANP32B232-251 peptides was performed using NMRFAM-SPARKY software distribution (National Magnetic Resonance Facility at Madison) and further imported to CCPNMR ^[1], whereby distance restraints were calculated using its built-in module.

cytochrome c [2] = biological target: T1, cytochrome c; assay: ITC titration of full-length ANP32A or ANP32A1-167 with reduced Cc; type: binding; settings: low ionic strength (25 mM)
Description: Isothermal titration calorimetry (ITC) experiments were performed using a Nano ITC Low Volume instrument (TA Instruments, USA). The reference cell was filled with distilled water. Titration experiments between reduced Cc and ANP32A or ANP32A1‐167 consisted of 17 injections of 2.91 µL of a 400 µM reduced Cc solution into the sample cell containing 50 µM ANP32A construct. Both Cc and ANP32A proteins were dialyzed against 10 mM sodium phosphate buffer pH 7.4. Assays performed at moderate ionic strength used the same experimental setup, but proteins were dialyzed against 20 mM sodium phosphate pH 7.4 with 50 mM NaCl. […] ANP32A, ANP32A230‐249 and ANP32B232‐251 titration data were analyzed using Origin 7.0 (OriginLab), employing a single‐ligand binding site model or a two‐ligand binding sites model. […] ANP32A1‐167 titration data was processed and analyzed using NanoAnalyze software (TA instruments).
ITC experiments were performed using a Nano ITC Low Volume instrument (TA Instruments, USA). […] ANP32A, ANP32A230-249 and ANP32B232-251 titration data was analyzed using Origin 7.0 (OriginLab), employing a single ligand binding site model or a two ligand binding sites model. […] ANP32A1-167 titration data were processed and analyzed using NanoAnalyze software (TA instruments).

T1 sequence (P99999 whole entry): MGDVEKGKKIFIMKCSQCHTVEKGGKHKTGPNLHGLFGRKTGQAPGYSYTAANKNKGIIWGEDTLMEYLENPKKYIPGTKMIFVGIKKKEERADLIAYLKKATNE

Molecule	coimmunoprecipitation of histone H3, in words (histone H3)	Kd (cytochrome c [1]) [µM]	–TΔS (cytochrome c [1]) [kcal/mol]	chemical-shift perturbations of Cc amide signals, in words (15N-labeled Cc)	binding to Cc by ITC, in words (cytochrome c [2])
B1	H3 binds both ANP32 proteins in a similar manner	~9.5	3.9	–	–
B2	–	–	–	no significant chemical‐shift perturbations	unable to interact with Cc even at low ionic strength
